Data reported in paper PMC10609481, “Substrate DNA Promoting Binding of Mycobacterium tuberculosis MtrA by Facilitating Dimerization and Interpretation of Affinity by Minor Groove Width”.

T1: MtrA (Mycobacterium tuberculosis H37Rv, UniProt P9WGM7 1-228)
T1 sequence: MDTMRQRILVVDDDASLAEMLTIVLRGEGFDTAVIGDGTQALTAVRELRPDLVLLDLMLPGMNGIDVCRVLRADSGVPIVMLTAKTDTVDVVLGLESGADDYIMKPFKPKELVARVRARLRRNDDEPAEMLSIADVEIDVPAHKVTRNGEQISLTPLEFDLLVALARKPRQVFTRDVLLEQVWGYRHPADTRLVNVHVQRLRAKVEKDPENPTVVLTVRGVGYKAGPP

B1: Rv3859c G20C (dsDNA)
DNA 1: GTTACGTGATCGAATTGTGCTCCAGG
DNA 2: CCTGGAGCACAATTCGATCACGTAAC
B2: Rv3859c G20A T21G (dsDNA)
DNA 1: GTTACGTGATCGAATTGTGAGCCAGG
DNA 2: CCTGGCTCACAATTCGATCACGTAAC
B3: Rv3859c G20A T21A (dsDNA)
DNA 1: GTTACGTGATCGAATTGTGAACCAGG
DNA 2: CCTGGTTCACAATTCGATCACGTAAC
B4: Rv3859c G20A T21C (dsDNA)
DNA 1: GTTACGTGATCGAATTGTGACCCAGG
DNA 2: CCTGGGTCACAATTCGATCACGTAAC
B5: Rv3859c G20A (dsDNA)
DNA 1: GTTACGTGATCGAATTGTGATCCAGG
DNA 2: CCTGGATCACAATTCGATCACGTAAC
B6: Rv3859c G20T (dsDNA)
DNA 1: GTTACGTGATCGAATTGTGTTCCAGG
DNA 2: CCTGGAACACAATTCGATCACGTAAC

Biological target: T1, MtrA
Test: BLI
Settings: protein: recombinant; tags: His6 (pET28a, BamHI/XhoI; N-terminal, inferred from stop codon in reverse primer); chain copies: 2; blunt

Q: How did the Kd turn out when B1 was run?
A: 7120 µM

Q: B2 was tested. Which Kd did it give?
A: 15.7 µM

Q: How did the Kd turn out when B3 was run?
A: 19.5 µM

Q: B4 was tested. Which Kd did it give?
A: 0.124 µM

Q: For B5, which Kd is on record?
A: 0.178 µM

Q: With B6 as the binder, how does the Kd read?
A: 4380 µM
